Test results: the nanobody polyreactivity screen of Harvey et al. (2022)

Experiment: yeast display, Sf9 membrane polyspecificity reagent, FACS + sequencing; frameworks hold sequencing errors
Summary of the method: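 Using colony PCR, genes from sorted yeast display clones were amplified, then sequenced on MiSeq at 2 × 250 and filtered by CDR length. The clones had been stained with 10% biotinylated, detergent-solubilized Sf9 membrane reagent for 1 hour at 4 °C and sorted by FACS into low and high (top ~1%) gates on anti-HA and streptavidin fluorescence. Polyreactivity labels come from the gate of origin.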

QVQLVESGGGLVQAGGSLRLSCAASGSTFRGYAMGWYRQAPGKERELVAAISSRGARTHYADSVKGRFTISRDNAKNTVYLQMNSLKPEDTAVYYCNKRQVFVSTGEYELDYWGQGTQVTVSS
polyreactivity (PSR sort gate): low polyreactivity

QVQLQESGGGLVQAGGTITLGYDMGWYRQAPGKEREFVAGIDTGAITYYADSVKGRFTNSRDNAKNTVYLQMNSLKPEDTAVYYCAAILTHTYAHSYWGQGTQVTVSS
polyreactivity (PSR sort gate): high polyreactivity

QVQLVESGGGLVQEGGSLRLSCAASGSNFKRNTMGWYRQAPGKERELVAAISASGGRTYYADSVKGRFTISRDNAKNTVYLPMNSLKPEDTAVYYCNARFRIGRSELDYWGQGTQVTVSS
polyreactivity (PSR sort gate): low polyreactivity

QVQLVESGGGLVQAGGRLRLSCAASGSIFDRNAMGLYRQAPGKESELVATITWYGVSTYYADSVKGRFTISRDNAKNTVYLQMNSLKPEDTAVYYCNADYSYRHWYDPGHYGEAMGYWGQGTQVTVSS
polyreactivity (PSR sort gate): low polyreactivity

QVQLVESGGGLVQAGGSLRLSCAASGITFAYYAMGWYRQAPGKERELVAAISRSGGGTYYADSVKGRFTISRDNAKNTVYLQMNSLKPEDTAVYYCNKDYPYYNSGPWAYKFDYWGQGTQVTVSS
polyreactivity (PSR sort gate): high polyreactivity

QVQLVESGGGLVQAGGSLRLSCAASGSISRFYAMGWYRQAPGKERELVAAISWSGGRPYYADSVKGRFTISRDKAKNTVYLQMNSLKPEDTAVYYCNAYRRYNDEDYWGQGTQVTVSS
polyreactivity (PSR sort gate): high polyreactivity

QVQLVESGGGLVQAGGSLRLSCAASGRTFYVSAMGWYRQAPGKERELVAAISWSGGSTYYADSVKGRFTISRDNAKNTVYLQMNSLKPEDTAVYYCAAQTYQRHVVAYDYWGQGTQVTVSS
polyreactivity (PSR sort gate): low polyreactivity

QVQLQESGGGLVQAGGSLGCAASCNISTRSEMGWYRQAPGKEREFVATINSGGITNYADSLKGRFTISRDNAKNTVYLRKNSLKAEVTAVYYRAVYGYFSYPYDYWGQGTQVSVSS
polyreactivity (PSR sort gate): low polyreactivity

QVQLVESGGGLVQAGGSLRLSCAASGITFSTYAMGWYRQAPGKERELVAAINWSGGSTRYADSVKGRFTISRDNAKNTVYLQMNSLKPADTAVYYCAAEVQGQVGEFDYWGQGTQVTVSS
polyreactivity (PSR sort gate): low polyreactivity

QVQLVESGGGLVQAGGSLRLSCAASGRIFRYYAMGWYRQAPGKERELVARITWSGGRTYYADSVKGRFTISRDNAKNTVYLQMNSLKPEDTAVYYCNARATSGGDYWGQGTQVTVSS
polyreactivity (PSR sort gate): high polyreactivity

QVQLVESGGGLVQAGGSLRLSCAASGRTIWYYAMGWYRQAPGKERELVAAITNRGGSTSYADSVKVRFTISRDNVKNTVYLQMNSLKPEDTAVYYCAKENYYGGGFDYWGQGTQVTVSS
polyreactivity (PSR sort gate): high polyreactivity

QVQLVESGGGLVQAGGRLRISCAASGFTFTRYAMRWYRQAPGKERELVAAISWSGGSTYYADSVKGRFTISRDNAKNTVSFQMNSLKPEDTAVYYCAKRGTVRQGGYGFWGQGTQVSVSS
polyreactivity (PSR sort gate): high polyreactivity

QVQLVESWGGLVQAGGSLRLSCAASGSIFPRNAMGWYRQAPGKERELVATISSGGSTYYADSVKGRFTISRDNAKNTVYLQMNSLKPEDTAVYYCAAEYVVRAIDVDYDYWGQGTQVTVSS
polyreactivity (PSR sort gate): high polyreactivity

QVQLVESGGGLVQAGGSLRLSCAASGLTIQNNAMGWYRQAPGKERDLVAVITRIGGSTYYADSVKGRFTISRDYEKNTVYLQMNSLKPEDTAVYYCAAGYRTRRRLHVYWGQGTQVTVSS
polyreactivity (PSR sort gate): high polyreactivity

QVQLVETGGGIVQAGVSLRISCASSGRTFRWYAMGWSRQSPGKERELVAAITSGGGTYYADSVKGLFTISRDYAKNTVYLQMNRLKREDTAVYYCNKLHRDRYDYWGQGTQVTVSS
polyreactivity (PSR sort gate): high polyreactivity

QVQLVESGGGLVQAGGSLRLSCAAYGRTIRRNAMGWYRQAPGKERELVAGISGSGTITYADSVKGRFTIARDNAKNTVYLQMNSLKPEDTAVYYCAARRKSFYTFYYWGQGTQVTVSS
polyreactivity (PSR sort gate): high polyreactivity

QVQLVESGGGLVQAGGSLRLSCAASGSTSSYYAMGWYRQAPGKERELVAAIRTSGRTYYADSVKGRFTISRDNAKNTVYLQMNSLKPEDTAVYYCNAVYVSPDYDSWGQGTQVTVSS
polyreactivity (PSR sort gate): high polyreactivity

QVQLVESGGGLVQAGGSLRLSCAASGSIFQYTMGWYRQAPGKERELVAAITRSGSSTYYADSVKGRFTISRDNAKNTVYLQMNSLKPEDTAVYSCAHTIRRVLGYGSWGQGTQVTVSS
polyreactivity (PSR sort gate): high polyreactivity

QVQLVESGGGLVQAGGSLRLSCAASGSTSYWYAMGWYRQAPGKERELVAAISSDDSTHYADSVKGRFTISRDNAKNTVYLQMNSLKPEDTAVYYFNREHYLIRYDYWGQGTQVTVSS
polyreactivity (PSR sort gate): low polyreactivity

QVQLVESGGGLVQAGGSLRLTCAASGNTFYGKTIGWYRQAPGKERELVAAIRFTGGSTTYADSVKGRFTISRDNAKITVYLQLNRLKPEDTAVYYCNTVWVSFSSIYHEYDYWGQGTQVTVSS
polyreactivity (PSR sort gate): low polyreactivity

QVQLVESGGGLVQAGGSLRLRCAASGFTFRFYAMGWYRQAPGKERELVAAISSTGIRTYYADSVKGRFTISRDNAKNTVYLQMNSLKPEDTAFYYCAILHRDSILDYWGQGTQVTVAS
polyreactivity (PSR sort gate): high polyreactivity

QVQLVESGGGLVQAGGSLRLSCAASGITFYDNVMGWYRQAPGKERELVAAITSGGSTNYADSVKGRFTISRDNAKNTVYLQMNSLKPEDTAVYYCAAQTRVDYEFPYRYGYWGQGTQVTVSS
polyreactivity (PSR sort gate): low polyreactivity

QVHLVESGGGLVQAGGSLRLSCAASGSIFVHNAMGWYRQAPGKESELVAGISARGASTYYADSVKGRFTISRDNAKNTVYLQMKSLKPEDTAVYYCAADRIPGYRVYGFYYWGQGTQVTVSS
polyreactivity (PSR sort gate): low polyreactivity

QVQLVESGGGLVQAGGSLRLSCAASGSIFLIYAMGWYRQAPGKERELVAAISSGGSTYYADSVKGRFTISRDNAKNTVYLQMNSLKPEDTAVYYCATYSTSVAFHLYYWGQGTQVTVSS
polyreactivity (PSR sort gate): low polyreactivity

QVQLVESGGGLVQAGGSLRLSCAASGSIFFTYTMGWYRQAPGKERELVAAISASGGSTYYADSVKGRFTISRDNAKNTVYLQMNSLKPEDTAVYYCNARRRTSFIMYYWGQGTQVTVSS
polyreactivity (PSR sort gate): high polyreactivity

QVQLVESGGGLVQAGGSLRLSCAASGSTFDKYAMGWYRQAPGKERELVAAISSGSSTSYADSVKGRFTISRDNAKNTVYLQMNSLKPEDTAVYYCAAEVAESIEDDYWGQGTQVTVSS
polyreactivity (PSR sort gate): low polyreactivity

QVQLVESGGGLVQAGGSLRLSCAASGITFYVKDMGWYRQAPGKEREFVAAISYRGGSTYYADSVKGRFTISRDNAKNTVYLQMNSLKPEDTAVYYCAADYNYWSPHRYDYWGQGTQVTVSW
polyreactivity (PSR sort gate): low polyreactivity

QVQLVESGGGLVQAGGSLRLSCAASGLIFNEYAMGWYRQAPGKERELVAAISWSDGGTSYADSVKGRFTISRDNAKNTVYLQMNSLKPEDTAVYYCAKGPRGAHRTHGAYVEMEYWGQGTQVTVSS
polyreactivity (PSR sort gate): low polyreactivity

QVQLVESGGGLVQAGGSLRLICAASGSIFYYNVMGWYRQAPGKEREWVAAIDIDGSTYYADSVNGRFTIARDNAKNTVYLQMNSLKPADTAVYYCNAQAPYWFSFYSDHKYDYWGLGTQVTVSS
polyreactivity (PSR sort gate): low polyreactivity

QVQLVESGGGLVQAGGSLRLSCAASGRILQFNAMGWYRQATGKERELVAAISTSGGRTYYADSVKGRFTISRDNAKNTVYLQMISLKPEDTAVYDCNAVAYKLMGYWGQGTQVTVSS
polyreactivity (PSR sort gate): high polyreactivity

QVQLVESGGGLVQAGGSLRLICAASGSIVKNYAMGWYTQAPGKERELVAVISSGGSTNYADSVKGRFTISRDNAKYTVYLHMNSLIPEDTAVYSCAAERKSRGFWYDYWGQGTQVTVSS
polyreactivity (PSR sort gate): high polyreactivity

QVQLEESGGGLVQAGGSLRLSCAASGIIFSPYAMGWYIQAPWKERELVAAINFSTGRTYYADSVKGRFTISRDNAKNTVYLQMNSLKPEDTAVYYCAAGKYPYVFRGGYDYWGQGTQVTVSS
polyreactivity (PSR sort gate): low polyreactivity

QVQLVESGGGLVQAGGSLRLTCAASGLTFTYYAMGWYRQAPGKERELVAAISASGGNTYYADSVKGRFTISRDNAKNTVYLQMNSLKPEDTAVFYCAAESSIYRGYGYSGQGTQVTVSS
polyreactivity (PSR sort gate): high polyreactivity

QVQLVESGGGLVQAGGSLRLSCAASGFIFAYYAMGWYRQATGKERELVAGITRGSSTYYADSVKGRFTISRDNAKNTVYLQMNSLKPEDTAVYYCARGYTWFYAVWPEYDYWGEGTQVTVSS
polyreactivity (PSR sort gate): high polyreactivity

QVQLVESGGGLVQAGGSLRLSCAASGRTFGVNAMGWYRQAPGKERELVASISNKGSTYYADSVKGRFTISRDNAKNTVYLQMNSLKPEDTAVYYCAADEYWSWDGTRYGVHYYYWGQGTQVTVSS
polyreactivity (PSR sort gate): low polyreactivity

QVQLVESGGGLVQAGGSLRLSCAASGSIFYRNAMGWYRQAPGKERELVAAISSDGSTNYADSVKGRFTISRDNAKNTVYLQMNSLKPEDTAVYFCAAPWTQILDYWGQGTQVTVSS
polyreactivity (PSR sort gate): low polyreactivity

QVQLVESGGGLVQAGGSLRLSCAASGRIFDPYAMGWYRQAPGKERELVASISWSGGRTYYADSVKGRFTISRDNAKNTVYLQMNSLKPEDTAVYYCAARQWYRYKVRFDYWGQGTQVTVSS
polyreactivity (PSR sort gate): high polyreactivity

QVQLVESGGGLVQAGGSLRLSCAASGSTLRGNAMGRYRQAPGKVREFVAAISSSGGRTYYADSVKGRFTISRDNAKNTVNLQMTSLNPEDTAVYYCAAARYQYYFSSVPRAYYYWGQGTQVTVSS
polyreactivity (PSR sort gate): high polyreactivity

QVQLVESGGGLVQAGGSLRLSCAASGSTFYINAMGWYRPAPGKERELVAAITDSGGSTYYADSVKGRFTISRDNAKNTVSLQMNSLKPEDTAVYYCATDGYDPRGYDYWGQGTQVTVSS
polyreactivity (PSR sort gate): high polyreactivity

QVQLVESGGGLVQAGGSLRLSCAASGRTFPGYAMGCYRQAPGKERELVATITFSDGSTYYADSVKGRFTISRDNAKITVYLQMNSLKPEDTAVYYCNARRSYFLRYGVNYWGQGTQVTVST
polyreactivity (PSR sort gate): low polyreactivity

KVQLVESGGGLVQAGGSLLLSCAASVSNYTLNAMGWYRQAPGKERVLVAAISLSGGSTYYADSVKGRFTISRDNAKNTVYLQMNSLKPEDTAVYYCNTPPSRYVRYGIYRYDYWGQGTQVTVSS
polyreactivity (PSR sort gate): high polyreactivity

QVQLVESGGGLVQAGGSLRLSCAASGSTFSPYAMGWYRQAPGKERELVANITISGGSTYYADSVKGRFTISRDNAKNTVYLQMNSLKPEDTAVYYCNADSLIRWLFTVVIFDYWGQGTQVTVSS
polyreactivity (PSR sort gate): low polyreactivity

QVQLVESGGGLVQAGGRLRLSCAASGRILYVYLMGWYRQAPGKERELGAAISRRGGGTYYADSVKGRFTISRDNAKNTVYLQMNSLKPEDTAVYYCATDQYYEYDYWGQGTQVTVSS
polyreactivity (PSR sort gate): low polyreactivity
